Data reported in the DeepSol protein solubility set.

Assay: soluble on expression in E. coli; label from the status in PepcDB or PDB records

Sequence | soluble on expression in E. coli
MKAILQRSIALLALAAGMSSVACADEVKMRVLGWYGNQPQSQQVERPFWKDLPKRSNGAFSANFRTIDELGLKGFESLRTLQSGAFDVVSFQISFVGGDAPVLMGADLPGAAFDFDQLQKNLDAYRPILEKELNDRFKAKLLTAWSFPFQILYCKGDIKTLDDLKGKKVRVSGTYTAKMVADLNAAGATLAGPEVYQGLMQGVVDCAITGSQYGNSNDWFEVAHSLSPIPLGGAGVVLQVARNAFWDKLSADQQAALSAEMKQLETALWDISRKGHEDGINCNVGKQPCTGKPGKMQLVEPTEADVREVKQLLKTSIVPMWIEDCSKFSKTCGDDWFRTIGAAAGIARLEHHHHHH | not soluble
MLGERIMSKLSKGIKDQASGLRNLSRNKPVKVIAVSAGKGGVGKSNISVNLAIALSQLNYSVMLLDADLGLANVDIMLGLHTKYNLSHVLQGICHLSDIILHGPAGVRVIPAASGTEFMTQLSPAEHAGIIDSFNELTDDLDYMIIDTAAGISETVLSFTRSSQELIVVVCDEPTSLTDAYALIKVMSKRYEWTHFHILANMVRNVKDGRDLFNKLFRVSGQFLDVQLDYLGAIPFDENIHKSVKKQNPILIAYPDSPAAHALRELAESVSNWSFKPSLGGNTSFFLERLVAGQF | not soluble
MGSDKIHHHHHHVSPRIVIVGAGPGGMATAIRLAGQGYQVEIFEAVDRPGGRMRGFSLGDYHFDTGPTILQVPRVYDELFSSAGLRFSDYVTLIRLDPNTRIRFWDGEYLDLTSNIAAFKAQLARFDPALPAEFERWYIEHIRKNVVGYEPYLGTPVRSPLVYLKPREIAAALAFRPWESLYDHFKRFFRDERVVYALSYQAKYLGMHPTACSSVFSLVTFLEFADGIWHPRGGFRALAAGLAKAATDLGVVIHYNSPVKQVLVEEGRACGVELVGGERIKADAVVVNADFGHALTHIIPPHARGTYTDQKLNSMEFSCSTFMLYLGVNRRWDHLPHHQLYLSANIRRNDPLWAKSAVLDEDDPSFYVCNPTIVDPTNAPPGHSTLFVLVPVPNLRYPVDWAAVEQRYRDLIIRQMAKLGFEDVERHIVVERRYTAETWRDEHHTYLGAVFNLIHSWSQLGPFRPHIRHNGARNLYWIGGAVHPGSGLMTILEAAKSAVHFIGEDLPLHQTTAVAH | not soluble
MTIRMIPHPIFSSPTKRRREKPDPPARAGAAQPSGPARMTPQQQTEWQQRLIALLESQPPDDDGAHDLSHLHRVWAVARTLLAHYPDADSIVVMAGSYLHDLVNLPKNHPQRQLASHWSAERARQLLADSGLTEAQLDNLAHAIEAHSYSAAIPPRTLEARIVQDADRMDALGPVGLARMFYVSGRMGRALAHPLDPLAEHRGRDDQAWAIDHIDVKLAKLPGMMQTEAGRAMAERKLEWLFHFRDEFCRDWMARLEHHHHHH | soluble
GMTQKEWPLWEVFVRSKQGLEHKHCGSLHATDAQQALHMARDVYTRRQEGVSIWVVPSTAITASAPEEKPELFDPMADKIYRHPTFYQLPDEVNHM | soluble
MEKKTIVLGVIGSDCHAVGNKILDHSFTNAGFNVVNIGVLSSQEDFINAAIETKADLICVSSLYGQGEIDCKGLREKCDEAGLKGIKLFVGGNIVVGKQNWPDVEQRFKAMGFDRVYPPGTSPETTIADMKEVLGVE | soluble
MGSDKIHHHHHHMCGHAKGGLTVLVSSRACPPQVQHRYLKTVLYLDCPQEVGDQSSPWWLLNIGYWLYGSACMLCKAAFGIELATEPQMEFSAHKGTTSISLVRDALQGAELRGLDVATVLSHAHIDPRLLDQRYARVPAGTFSRLWIALADLLDDEFFAADSHPLRRGSFKLMAQLALGCDTIGQALKRILAFLRTALDDIYGSVECEGEHAAIIIHDHGELRRVFCYGAWLVLVHGLLCWLCDRRIPIVKLSMRPPQPVDDSDYRMRFCEEIEWRADRTSAVFEKSFLAYKVCQTPVSLPAFLKGTPSNFLVKYRNDDSTSIMIRRRLKLLSPHTWPELDELARDLSMSSSTLQRRLYAEGFTYQRLKDNLRRDISISLLCRAGMTVDGVASEVGFIETSAFHRAFKKWTGITPGAYRRSLLSPRGD | not soluble
